Assay results: publication PMC10245032 (EMBO Molecular Medicine, 2023)

T1: PfCSP C‐terminal linker peptide P2 (PfCSP 281–294) (Plasmodium falciparum NF54)
T1 construct: Plasmodium falciparum NF54 circumsporozoite protein (PfCSP), aa 281–294 of the C-linker; One of 14 overlapping peptides (P1-P14); also called C‐CSP peptide; source: synthetic peptide (PSL Peptide Specialty Laboratories GmbH)
T1 chain: QGHNMPNDPNRNVD

T2: PfCSP C‐linker peptide (aa 273–310) (Plasmodium falciparum NF54, UniProt P19597)
T2 construct: Plasmodium falciparum NF54 circumsporozoite protein, C-linker, aa 273–310; source: synthetic peptide (PSL Peptide Specialty Laboratories GmbH)
T2 chain: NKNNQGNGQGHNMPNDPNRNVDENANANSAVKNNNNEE

B1: mAb 3764 (recombinant human IgG1) (antibody, V domains shown)
VH: QVQLVESGGGVVQPGRSLRLSCAASGFTFSSYGMHWVRQAPGKGLEWVAVIWYDGSYKSYIESVKGRFTISRDNSKNTLYLQMNSLRVEDTAVYYCALGYSSGQGTLDNWGQGTLVTVSS
VL: DVVMTQSPLSLAVTLGQPASISCRSTQSLVYSDGNTYLNWFQQRPGQSPRRLIYKVSNRDSGVPDRFSGSESGTDFTLKISRVEAEDVGLYYCMQGTHWPWTFGQGTKVEIK
notes: heavy chain variable region of mAb 3764 (IGHV3-33); human IgG1 constant region from the IGHG1 expression vector; kappa chain variable region of mAb 3764; human Ig kappa constant region from the IGKC expression vector; IgG1; Somatic mutations H.N56Y and H.Y58S against germline are already part of the antibody; also called C‐linker specific mAb 3764; source: HEK293T, co-transfected, purified from …
B2: 3764 Fab (Fab, V domains shown)
VH: B1 VH
VL: B1 VL
notes: mAb 3764 heavy chain variable region upstream of human IgG1-CH1; mAb 3764 kappa chain variable region upstream of human IgK constant domain; also called mAb 3764 Fab; source: HEK293F, transiently co-transfected, purified (Kappa-select, MonoS cation exchange, Superdex 200 SEC)

How the values were obtained:
Conditions in all cases: both partners purified
[1] = target: T3, PfCSP C‐terminal domain (C‐CSP), NF54 (Plasmodium falciparum NF54, UniProt P19597); assay: ELISA; antigen coated on 384-well plates overnight at 4°C in PBS (full-length PfCSP 0.4 μg/ml, C-CSP 1 μg/ml, peptides 2 μg/ml); mAb from 4 μg/ml in PBS, RT 1.5 h; detected with anti-human IgG-HRP; AUC
T3 construct: Plasmodium falciparum NF54 circumsporozoite protein, C-terminal domain made of the C-linker (aa 273–310) and the α-TSR domain (aa 311–384); also called C‐CSP peptide; PfCSP C terminus; source: E. coli, by the EMBL protein expression and purification core facility

[2] = target: T1, PfCSP C‐terminal linker peptide P2 …; assay: as above
[3] = target: T4, full‐length PfCSP (FL‐CSP), NF54 (Plasmodium falciparum NF54); assay: as above
T4 construct: Plasmodium falciparum NF54 circumsporozoite protein, called full-length; source: FL-CSP expressed in E. coli by the EMBL core facility; a biotinylated NF54 FL-CSP was expressed in HEK293F and purified (HisTrap HP, SEC)

[4] = target: T2, PfCSP C‐linker peptide (aa 273–310); assay: as above
[5] = target: T1, PfCSP C‐terminal linker peptide P2 …; assay: crystal structure; 3764 Fab and PfCSP 281-294 peptide mixed 1:3; 19% isopropanol, 19% PEG 4000, 5% glycerol, 0.095 M sodium citrate pH 5.6; 2.36 Å

| Binder | binding result [1] | binding result [2] | binding result [3] | binding result [4] | binding result [5] |
| --- | --- | --- | --- | --- | --- |
| B1 | binds | binds | binds | binds | – |
| B2 | – | – | – | – | binds |
